One block for each binder: values may come before it.
Molecular target: T1, MED16 (mouse (Mus musculus; endogenous in CH12), UniProt Q6PGF3 1-828)
T1 construct: MED16, Mus musculus, endogenous lower Tail subunit of Mediator; source: endogenous, CH12 mouse B lymphoma nuclear extract; immunopurified as part of Mediator (FLAG M2 agarose, FLAG peptide elution)
T1 sequence (looked up): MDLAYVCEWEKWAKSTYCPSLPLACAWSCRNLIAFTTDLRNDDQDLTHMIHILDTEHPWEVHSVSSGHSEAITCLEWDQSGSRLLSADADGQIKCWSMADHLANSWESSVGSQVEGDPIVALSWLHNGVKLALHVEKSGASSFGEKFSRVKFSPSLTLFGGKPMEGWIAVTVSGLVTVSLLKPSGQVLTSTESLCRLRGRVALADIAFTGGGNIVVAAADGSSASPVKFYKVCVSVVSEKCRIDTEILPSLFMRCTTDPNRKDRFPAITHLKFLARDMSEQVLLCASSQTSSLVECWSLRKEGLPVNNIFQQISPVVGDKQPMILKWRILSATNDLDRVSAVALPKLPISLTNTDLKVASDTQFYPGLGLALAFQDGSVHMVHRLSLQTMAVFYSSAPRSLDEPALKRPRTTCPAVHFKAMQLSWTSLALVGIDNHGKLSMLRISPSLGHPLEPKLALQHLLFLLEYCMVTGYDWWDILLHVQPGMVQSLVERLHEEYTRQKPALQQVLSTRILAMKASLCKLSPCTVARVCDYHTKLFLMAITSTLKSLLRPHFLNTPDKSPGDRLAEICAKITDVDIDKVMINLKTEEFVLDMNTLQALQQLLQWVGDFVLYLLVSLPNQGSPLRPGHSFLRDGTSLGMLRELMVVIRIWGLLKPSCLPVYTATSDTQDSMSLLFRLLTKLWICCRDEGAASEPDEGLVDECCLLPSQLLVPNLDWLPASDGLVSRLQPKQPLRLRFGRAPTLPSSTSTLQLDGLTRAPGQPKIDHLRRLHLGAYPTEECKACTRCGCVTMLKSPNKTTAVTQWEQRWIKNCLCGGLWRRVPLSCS
Assay: cryo-EM structure; endogenous mouse Mediator immunopurified from CH12 nuclear extract through 3×FLAG-MED19 or 3×FLAG-MED25; eluted in 50 mM HEPES pH 7.9, 100 mM KCl, 5% glycerol, 1 mM EDTA, 0.005% NP-40; map at 4.0 Å overall, focused refinement of the MED1 and knob/hook ends (6-10 Å)
Conditions: both partners purified

- binding result: binds
B1: MED25 (natural protein, mouse (Mus musculus; endogenous in CH12), UniProt Q8VCB2 1-745, looked up)
chain: MVPGSEGPARAGGLVADVVFVIEGTANLGPYFEELRKHYLLPAIEYFNGGPPAETDFGGDYGGTQYSLVVFNTVDCAPESYVQCHAPTSSAYEFVTWLDGIKFMGGGGESCSLIAEGLSTALQLFDDFKKMREQIGQTHRVCLLICNSPPYLLPAVESTTYSGCTTESLVQKIGERGIHFSIVSPRKLPALRLLFEKAAPPALLEPLQQPADVSQDPRHMVLVRGLVLPVGGSSTSGSLQTKQAVPLPPAPASAATLSAAPPQALPPVPPQYQVPGNLSAAQVAAQNAVEAAKSQKAGLGPRFSPINPLQQAAPGVGPPFSQAPAPPLAPVPPGAPKPPPASQPSLVSTVAPGPVLAAPAQPGAPSLAGTVTPGGVNGPSAAQLGGPALGGQQSVSNKLLAWSGVLEWQEKPKPASVDANTKLTRSLPCQVYVNHGENLKTEQWPQKLIMQLIPQQLLTTLGPLFRNSRMVQFHFTNKDLESLKGLYRIMGNGFAGCVHFPHTAPCEVRVLMLLYSSKKKIFMGLIPYDQSGFVNGIRQVITNHKQVQQQKLEQQRGMGAQQAPPVLGPILEEQARPPQNLLQLRAPQPQPQGAVGASAATGQPQPQGATQAPTGAPQGPPGAAPGPPPSGPILRPQNPGANPQLRSLLLNPAPPQTGVPPPQASLHHLQPPGAPTLLPPHQSMGQPQLGPQLLHPPPAQSWPTQLPQRAPLPGQMLLSGGPRGPVPQPGLQPSVMEDDILMDLI
notes: MED25, Mus musculus, endogenous lower Tail subunit of Mediator; only the N-terminal von Willebrand domain (aa 15-216) is seen in the map; The 3×FLAG tag stands on MED25 only in the MED25-FLAG cell line; in the MED19-FLAG line MED25 is untagged; Images from the datasets were combined for the final map; also called MED25-FLAG; source: endogenous, CH12 mouse B lymphoma nuclear extract; …

- binding result: binds
B2: MED15 (natural protein, mouse (Mus musculus; endogenous in CH12), UniProt Q924H2 1-789, looked up)
chain: MDVSGQETDWRSAAFRQKLVSQIEDAMRKAGVAHSKSSKDMESHVFLKAKTRDEYLSLVARLIIHFRDIHNKKSQASVSDPMNALQSLTGGPTPGAAGIGMPPRGPGQSLGGMGGLGAMGQPLPLSGQPPPGTSGMAPHGMAVVSTATPQTQLQLQQVALQQQQQQQQQQQFQQQQAALQQQQQQQQQQQQQQQFQAQQNAMQQQFQAVVQQQQLQQQQQQQHLIKLHHQSQQQQIQQQQLQRMAQLQLQQQQQQQQQQALQAQPPMQQPSMQQPQPPPSQALPQQLSQLHHPQHHQPPPQAQQSPIAQNQPPQIPPQSQSQPLVSQAQALPGPMLYAAQQQLKFVRAPMVVQQPQVQPQVQQVQPQVQPQAAVQAAQSAQMVAPGVQMIAEALAQGGMHVRARFPPTSTMSAGPSSSISLGGQPTTQVSQSSLTMLSSPSPGQQVQTPQSMPPPPQPSPQPGSQPNSNVSSGPAPSPSSFLPSPSPQPSQSPVTARTPQNFSVPSPGPLNTPVNPSSVMSPAGSSQAEEQQYLDKLKQLSKYIEPLRRMINKIDKNEDRKKDLSKMKSLLDILTDPSKRCPLKTLQKCEIALEKLKNDMAVPTPPPPPVLPTKQQDLCQPLLDAVLANIRSPVFNHSLYRTFVPAMMAIHGPPIVSPVVCSRKRRFEEDERQSIPNVLQGEVARLDPKFLVNLDPSHCSNNGTVHLICKLDDKDLPSVPPLELSVPADYPAQSPMWIDRQWQYDANPFLQSVHRCMTSRLLQLPDKHSVTALLNTWAQSIHQACLSAA
notes: MED15, Mus musculus, endogenous lower Tail subunit of Mediator; only the C-terminal portion (from residue 620) is seen in the map; source: endogenous, CH12 mouse B lymphoma nuclear extract; immunopurified as part of Mediator (FLAG M2 agarose, FLAG peptide elution)

From article PMC7921410, “Structure of mammalian Mediator complex reveals Tail module architecture and interaction with a conserved core” (Nature Communications, 2021)
